Test results as given in the Human Domainome abundance scans (Beltran et al. 2025).

B1: Protein S100-G, residues 1 to 79; numbered along this chain, P02633 (parent)
chain: MSAKKSPEELKGIFEKYAAKEGDPNQLSKEELKLLLQTEFPSLLKGPSTLDELFEELDKNGDGEVSFEEFQVLVKKISQ

Variants of: B1
Assay: abundance fitness (aPCA) (normalised: wild type 0, dead -1); higher = more abundant; growth selection in yeast, the domain comes from the species named
Conditions: Bos taurus

Abundance fitness: each site, then its substitutions
G22: P -0.19, E -0.17, R -0.013, I -0.291, D -0.167, L -0.319, K -0.037, Q -0.231, V -0.29, N -0.147, Y -0.204, W -0.547, C -0.264, M -0.19
E21: S -0.085, T -0.082, W -0.236, D 0.074, G -0.034, V -0.057, Q -0.031, H -0.014, Y -0.058, R -0.104, I -0.027, C 0.011, N 0.039, A 0.003, P -0.35, F 0.085
Y17: E -0.425, Q -0.379, T -0.444, M -0.168, H -0.067, P -1.25, C -0.295, K -0.519, F -0.008, S -0.45, G -0.521, W -0.017, V -0.345, D -1.1, A -0.129, L -0.332, R -0.429, N -0.433
N25: T -0.006, R -0.069, K -0.059, I 0.024, Q -0.079, S -0.027, H 0.02, L 0.081, W -0.303, A 0.014, C -0.014, F 0.027, D -0.052, P -0.077, Y -0.067, M -0.083, G -0.021, E -0.012, V -0.066
P24: G -0.031, H -0.031, V -0.009, E -0.061, L -0.113, K 0.046, M -0.066, Y -0.075, Q 0.019, D -0.125, F -0.197, I 0.024, C 0.029, W -0.219, A -0.093, S 0.06, R -0.007
